From patent publication US20170202936A1, “Identification, Optimization And Use Of Cryptic HLA-B7 Epitopes For Immunotherapy” (VAXON BIOTECH, priority 2006, published 2017)

Biological target: HLA-B*0702 (human)
Test: T2-B7 cells, HLA-B*0702 surface expression (ME-1 mAb); ratio to reference peptide CMV265-274 (SEQ ID NO: 9)
Conditions: remark: other sources report otherwise

DPRRLVQLL [TERT444]
RA (relative affinity): > 10
